Experimental data as given in FireProtDB (doi:10.1021/bi00066a003).

Conditions: Geobacillus stearothermophilus, pH 7.5, 25 °C, Fluorescence, TEA 50 mM, reversible: yes, whole UniProt chain shown

B1: Phosphoglycerate kinase wild type, P18912 (protein)
chain: MNKKTIRDVDVRGKRVFCRVDFNVPMEQGAITDDTRIRAALPTIRYLIEHGAKVILASHLGRPKGKVVEELRLDAVAKRLGELLERPVAKTNEAVGDEVKAAVDRLNEGDVLLLENVRFYPGEEKNDPELAKAFAELADLYVNDAFGAAHRAHASTEGIAHYLPAVAGFLMEKELEVLGKALSNPDRPFTAIIGGAKVKDKIGVIDNLLEKVDNLIIGGGLAYTFVKALGHDVGKSLLEEDKIELAKSFMEKAKEKGVRFYMPVDVVVADRFANDANTKVVPIDAIPADWSALDIGPKTRELYRDVIRESKLVVWNGPMGVFEMDAFAHGTKAIAEALAEALDTYSVIGGGDSAAAVEKFGLADKMDHISTGGGASLEFMEGKQLPGVVALEDK
unfolding free energy (GdnHCl): 4.35 kcal/mol
unfolding free energy (Urea): 4.21 kcal/mol
